Test results: US20230312651A1, “Cyclic Peptide, Peptide Complex, and Drug Composition Containing Said Cyclic Peptide and/or Said Peptide Complex” (The University of Tokyo, priority 2020, published 2023)
“Also recorded” adds a separate entry of the source. Starred links: 1 amine or outer side, 2 acyl side, 3 side chain; linkers in the order of their positions; H or OH if unused. Positions of bridges follow the written chain, without caps; N, C: chain ends. Non-standard residues stand in square brackets, D forms with d. Chains are numbered I, II in the order given. No end group written: not given here. NH(CH2CH2O)6CH2CO = O=C(COCCOCCOCCOCCOCCOCCN[*:1])[*:2]; Dap = NC[C@H](N)C(=O)O

B1: SEQ ID NO 11 (peptide)
peptide: Ac-YKYKFWAYIPTNCGSGSGS
modifications: thioether (positions not given here); not fully specified (residue 1, bridges)
notes: In the selection it stood as a peptide-mRNA/cDNA conjugate joined through a puromycin linker
B2: SEQ ID NO 13 (peptide)
peptide: Ac-YRLHQWINTFRCGSGSGS
modifications: thioether (positions not given here); not fully specified (residue 1, bridges)
notes: as for B1
B3: SEQ ID NO 1 (peptide)
peptide: Ac-YRHNSYEASAFWCGSGSGS
modifications: thioether (positions not given here); not fully specified (residue 1, bridges)
notes: as for B1
B4: SEQ ID NO 6 (peptide)
peptide: Ac-YRHNSYEASAFCCGSGSGS
modifications: thioether (positions not given here); not fully specified (residue 1, bridges)
notes: as for B1
B5: SEQ ID NO 2 (peptide)
peptide: Ac-YRHNSYKASAFWCGSGSGS
modifications: thioether (positions not given here); not fully specified (residue 1, bridges)
notes: as for B1
B6: SEQ ID NO 3 (peptide)
peptide: Ac-YRHSSYEASAFWCGSGSGS
modifications: thioether (positions not given here); not fully specified (residue 1, bridges)
notes: as for B1
B7: SEQ ID NO 5 (peptide)
peptide: Ac-YRHNSYEASTFWCGSGSGS
modifications: thioether (positions not given here); not fully specified (residue 1, bridges)
notes: as for B1
B8: SEQ ID NO 4 (peptide)
peptide: Ac-YRHDSYEASAFWCGSGSGS
modifications: thioether (positions not given here); not fully specified (residue 1, bridges)
notes: as for B1
B9: SEQ ID NO 9 (peptide)
peptide: Ac-YAHEGYKNSAFWCGSGSGS
modifications: thioether (positions not given here); not fully specified (residue 1, bridges)
notes: as for B1
B10: SEQ ID NO 8 (peptide)
peptide: Ac-YLQPKFKFWCGSGSGS
modifications: thioether (positions not given here); not fully specified (residue 1, bridges)
notes: as for B1
B11: SEQ ID NO 12 (peptide)
peptide: Ac-YRIHPWITTYRCGSGSGS
modifications: thioether (positions not given here); not fully specified (residue 1, bridges)
notes: as for B1
B12: SEQ ID NO 7 (peptide)
peptide: Ac-YLRPRYKFWCGSGSGS
modifications: thioether (positions not given here); not fully specified (residue 1, bridges)
notes: as for B1
B13: SEQ ID NO 10 (peptide)
peptide: Ac-YRFWQTPRFRLCGSGSGS
modifications: thioether (positions not given here); not fully specified (residue 1, bridges)
notes: as for B1

Experiments:
Akt = assay: Western blot of phosphorylated Akt (S473) in primary hippocampal neurons; format: cell-based, mouse; settings: ANA-12 100 µM added 30 minutes before 1 nM DiTrbL3; p<0.05
Experimental: (§1) After washing with 0.1 M PBS twice, cells were lysed in a radio-immunoprecipitation assay (RIPA) buffer containing 50 mM Tris-HCI (pH 7.4), 150 mM NaCl, 2 mM EDTA, 1% Nonidet P-40, 0.5% Na-deoxycholate, 0.1% SDS, 50 mM NaF, 0.2 mM Na3VO4, 10 µg/mL aprotinin, 10 µg/mL leupeptin, and 1 mM phenylmethylsulfonyl fluoride on ice for 30 minutes. After ultrasonic treatment and centrifugation at 20,000 ×g for 30 minutes, the supernatant was subjected to SDS-PAGE. Protein amount was quantified using Bicinchoninic Acid Kit (BCA-1, Sigma).
(§2) The cell lysate (protein amount: 20 µg in P-TrkB, 10 µg in TrkB, and 5 µg in Akt and Erk) was separated using 8% polyacrylamide gel and transferred to a polyvinylidene difluoride membrane (Merck Millipore, Massachusetts, USA). […]
(§3) Finally, after the resulting membrane was washed with TBST, an immune-positive bands were detected by a chemiluminescence method using a Luminata Crescendo HPR substrate (Merck Millipore). The relative phosphorylation level of each kinase was calculated as a ratio of phosphorylated kinase/all kinases.

Erk½ = assay: Western blot of phosphorylated Erk½ in primary hippocampal neurons; format: cell-based, mouse; settings: ANA-12 100 µM added 30 minutes before 1 nM DiTrbL3; p<0.01
Experimental: as §1, §2, §3

[1] = test system: 40 RTKs (receptor tyrosine kinases); assay: Phospho-RTK array evaluation (off-target activity); format: cell-based, mouse; settings: ANA-12 100 µM added 30 minutes before DiTrbL3 1 nM
Experimental: Comprehensive study of the phosphorylated tyrosine kinase receptor was conducted using a phospho-RTK array in accordance with the manufacturer’s protocol (Proteome Profiler mouse Phospho-RTK Array Kit, ARY014, R&D Systems). The phosphorylation level was evaluated by pixel density and quantified by Image J Software.

[2] = molecular target: T1, extracellular domain of hTrkC (Homo sapiens, UniProt Q16288); assay: SPR binding kinetics (Biacore T200), hTrkC; settings: Homodimer (peptide complex), 1:1 binding model
T1 construct: the extracellular domain of hTrkA, hTrkC, and hTrkB
T1 sequence (Q16288 32-429 limits assumed): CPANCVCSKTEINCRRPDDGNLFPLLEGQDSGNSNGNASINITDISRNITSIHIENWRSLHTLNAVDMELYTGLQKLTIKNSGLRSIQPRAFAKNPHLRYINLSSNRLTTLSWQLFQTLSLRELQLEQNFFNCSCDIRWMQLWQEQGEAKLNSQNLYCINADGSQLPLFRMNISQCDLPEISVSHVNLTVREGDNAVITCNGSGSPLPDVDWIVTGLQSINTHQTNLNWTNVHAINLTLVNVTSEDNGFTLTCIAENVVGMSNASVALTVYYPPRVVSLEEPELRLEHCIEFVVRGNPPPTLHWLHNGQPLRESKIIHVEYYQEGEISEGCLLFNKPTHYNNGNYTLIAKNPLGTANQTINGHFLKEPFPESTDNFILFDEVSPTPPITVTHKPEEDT
Experimental: (§4) With respect to the binding kinetics (binding affinity (dissociation constant) KD) of the cyclic peptides towards the extracellular domain of hTrkA, hTrkC, and hTrkB (which will hereinafter be called “hTrkA-C proteins”, collectively) immobilized on a sensor chip via a His6-tag, quantitative measurements making use of surface plasmon resonance (SPR) were carried out to evaluate the binding intensity and selectivity of the cyclic peptide to hTrkB, compared with that to hTrkA and hTrkC.
(§5) The binding kinetics of each peptide towards the hTrkA-C proteins were determined using Biacore T200 (GE Healthcare). The buffer used was HBS-P+ (10 mM HEPES, 150 mM NaCl, and 0.05 vol% surfactant P20, pH 7.4) containing 0.1 vol% DMSO and 1 mM b-dodecyl-maltoside. 100 nM hTrkA-C proteins were immobilized on a Ni^2+ treated NTA chip in accordance with the manufacturer’s instructions (baseline response 1000 to 3000 refraction units). Peptides were injected as an analyte at a flow rate of […] and binding kinetics was modelled using a 1:1 binding model.

[3] = molecular target: extracellular domain of hTrkA (Homo sapiens, UniProt P04629); assay: SPR binding kinetics (Biacore T200), hTrkA; set-up: the extracellular domain of hTrkA, hTrkC, and hTrkB; settings: Homodimer (peptide complex), 1:1 binding model
Chain of extracellular domain of hTrkA (P04629 33-423 limits assumed): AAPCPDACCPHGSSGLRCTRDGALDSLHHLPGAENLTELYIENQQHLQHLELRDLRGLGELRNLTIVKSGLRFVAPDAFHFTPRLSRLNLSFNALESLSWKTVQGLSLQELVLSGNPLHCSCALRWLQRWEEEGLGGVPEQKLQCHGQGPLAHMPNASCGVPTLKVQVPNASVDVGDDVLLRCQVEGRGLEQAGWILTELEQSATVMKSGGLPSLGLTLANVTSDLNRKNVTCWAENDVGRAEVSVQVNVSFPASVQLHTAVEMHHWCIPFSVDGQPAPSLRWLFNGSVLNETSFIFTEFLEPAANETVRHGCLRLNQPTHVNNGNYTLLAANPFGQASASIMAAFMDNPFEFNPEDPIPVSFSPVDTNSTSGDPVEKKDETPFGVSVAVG
Experimental: as §4, §5

[4] = molecular target: T2, extracellular domain of hTrkB (human, UniProt Q16620 32-430); assay: RaPID affinity selection, 5 rounds, on beads carrying TrkB extracellular domain; sequencing
T2 construct: extracellular domain; Immobilised on a Ni2+-treated NTA sensor chip through the His6-tag for SPR; fixed on His pulldown Dynabeads at 200 nM for the RaPID selection; also called human TrkB; TrkB extracellular domain; not shown: His6-tag
T2 sequence (Q16620 32-430): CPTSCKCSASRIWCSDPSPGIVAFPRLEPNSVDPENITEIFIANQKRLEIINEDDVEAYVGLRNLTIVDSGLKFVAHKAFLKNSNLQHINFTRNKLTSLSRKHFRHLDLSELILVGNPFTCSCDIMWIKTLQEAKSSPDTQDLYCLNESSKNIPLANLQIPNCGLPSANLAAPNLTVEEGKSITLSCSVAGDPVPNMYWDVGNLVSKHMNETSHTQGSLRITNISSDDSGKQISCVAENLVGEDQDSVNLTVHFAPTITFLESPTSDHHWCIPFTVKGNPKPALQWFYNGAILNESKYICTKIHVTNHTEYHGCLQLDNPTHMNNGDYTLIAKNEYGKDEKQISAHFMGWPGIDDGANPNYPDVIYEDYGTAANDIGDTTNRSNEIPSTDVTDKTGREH
Experimental: Next, the peptide-mRNA/cDNA conjugate libraries thus obtained were subjected to affinity selection. First, as control selection, the peptide-mRNA/cDNA conjugate libraries were passed three times through His pulldown Dynabeads (Life Technologies) (each passage for 10 minutes under the condition of 4° C.). The above process is called “pre-clearance” or negative selection and is performed to remove undesired binding to beads. […] The process is called “positive selection”.
By heating at 95° C. for 5 minutes, the cDNAs were eluted from the beads and a portion of the eluted cDNAs was evaluated by quantitative PCR using Sybr Green I and thermal cycler (LightCycler (Roche)). The remaining portion of the cDNAs was amplified by PCR and used for the transcription of the mRNA library used for affinity selection in the next round.
One round consisted of preparation of a library, pre-clearance, and positive selection, and the round was performed 5 times. […] The collected cDNAs were amplified by PCR, purified using a column (NucleoSpin (Machery-Nagel)), and sequenced using a high through-put sequencer (MiSeq (Illumina)). Data analysis was performed using a software (CLC Sequence Viewer 7 (Qiagen)).

Row | Molecule | binding result [4] | other results
1 | O=C(Nc1ccccc1C(=O)NC1CCCCNC1=O)c1cc2ccccc2s1 (stereo not drawn) [ANA-12, reference compound] | – | phosphorylation of Akt induced by DiTrbL3 (Akt): the phosphorylation activity decreased; also recorded: suppressed; phosphorylation of Erk½ induced by DiTrbL3 (Erk½): the phosphorylation activity decreased; also recorded: suppressed; TrkB phosphorylation signal induced by DiTrbL3, RTK array and densitometric analysis [1]: reduction in TrkB phosphorylation signal
2 | I: {CH2CO}-YRHNSYEASAFWCGSGSGS[NH(CH2CH2O)6CH2CO][Dap]-NH2 / II: {CH2CO}-YRHNSYEASAFWCGSGSGS[NH(CH2CH2O)6CH2CO] (amide I:21-II:C; thioether I:N-I:13, II:N-II:13) [DiTrbL1] | – | binding affinity KD, TrkC [2]: N.B.; binding affinity KD, TrkA [3]: N.B.
3 | B1 | binds | –
4 | B2 | binds | –
5 | B3 | binds | –
6 | B4 | binds | –
7 | B5 | binds | –
8 | B6 | binds | –
9 | B7 | binds | –
10 | B8 | binds | –
11 | B9 | binds | –
12 | B10 | binds | –
13 | B11 | binds | –
14 | B12 | binds | –
15 | B13 | binds | –
